Test results published in patent US20210275653A1.

Each binder was assayed against HLA-A*24 MHC class I molecule (peptide-receptive after UV-ligand exchange) (human) (assay: UV-ligand exchange, anti-b2m ELISA; grade of peptide exchange yield (>=10% = +; >=20% = ++; >=50 = +++; >=75% = ++++)).

| Binder | peptide exchange yield |
| --- | --- |
| SYNDALLTF [peptide … (SEQ ID No. 24)] | 50 to 75% |
| RYMWINQEL [peptide … (SEQ ID No. 36)] | 50 to 75% |
| RYLQKIEEF [peptide … (SEQ ID No. 41)] | 50 to 75% |
| SYSPAHARL [peptide … (SEQ ID No. 30)] | 50 to 75% |
| LYFEKGEYF [peptide … (SEQ ID No. 55)] | > 75% |
| RYGSPINTF [peptide … (SEQ ID No. 29)] | 50 to 75% |
| PYQLNASLFTF [peptide … (SEQ ID No. 32)] | > 75% |
| AYTSPPSFF [peptide … (SEQ ID No. 31)] | 50 to 75% |
| IYEPYLAMF [peptide … (SEQ ID No. 25)] | 50 to 75% |
| RYFKTPRKF [peptide … (SEQ ID No. 45)] | 20 to 50% |
| IYTRVTYYL [peptide … (SEQ ID No. 35)] | 20 to 50% |
| VYNTVSEGTHF [peptide … (SEQ ID No. 44)] | 50 to 75% |
| LFHPEDTGQVF [peptide … (SEQ ID No. 56)] | 20 to 50% |
| SYTPVLNQF [peptide … (SEQ ID No. 47)] | > 75% |
| TYIGQGYII [peptide … (SEQ ID No. 42)] | 50 to 75% |

Results, then the binder that gave them:

| peptide exchange yield | Binder |
| --- | --- |
| 50 to 75% | AYSEKVTEF [peptide … (SEQ ID No. 54)] |
| > 75% | YYAKEIHKF [peptide … (SEQ ID No. 28)] |
| 50 to 75% | AFSPDSHYLLF [peptide … (SEQ ID No. 34)] |
| 50 to 75% | AWAPKPYHKF [peptide … (SEQ ID No. 48)] |
| > 75% | GYLQGLVSF [peptide … (SEQ ID No. 27)] |
| 50 to 75% | RYADDTFTPAF [peptide … (SEQ ID No. 26)] |
| 50 to 75% | AYIKNGQLF [peptide … (SEQ ID No. 43)] |
| 50 to 75% | IYPDVTYAF [peptide … (SEQ ID No. 59)] |
| 50 to 75% | QYGKDFLTL [peptide … (SEQ ID No. 33)] |
| 20 to 50% | GYIDKVRQL [peptide … (SEQ ID No. 58)] |
